Results: a protein production outcome set (Wang et al. 2014)

Assay: label from the status in PepcDB records

MGFLESFVSFIVYLASTCGYVGIFILNMLEYACLPFPSEIVLPAIGASVASGKYSMIYALPISVIGGVVGTLISYSVGMYAGKKVISFAKRKHKKSKSIFEKIDRLFSRYGKITVFLARLLPFTRTYISLFAGAEKVNKIMFVIFSALGITIMDSFYLLLGYFAYDNKSFIEKALRHYSIGLIIIIVIAIFSYYIYKNLKLKKLKKEN
protein production: failed

MGFLHKLWDETVAGPTPDNGLGKLRKHDSLSTVRSSPPSLSSDQVTRSIMVTKGNNNVRGLRKLKMDPDSPTCSSSNPGTPLTPGTPCYALGPFTAGKIPSSGEDDAASLTTYEWIVINALDR
protein production: failed

MGFYGGGSMASGRPESTGIDSLGIGKILAVYIKDNENLAIDEDKLQLTAELIRVFSASPGRDIVSQVNEDGGGSFSLSLDLQQFKKISDIENFFINLEDNPKGVIPCMNAAVHKVLFDQWETNEFENVMKINVRLHNYPESSISLKNLRAAYIGKLVTVHGTVVKVSTVKPLVTQMAFDCGKCKTGITREFTDGKFSPPLKCDSHGCKSKTFTPIRSSAQTIDFQKIRVQELQKPEDHEEGRVPRTVECELMEDLVDICIPGDVVTVTGIIGVINNYMDIGGGKSKTKNQGFYYLFIEAVSVKNTKRQSAFENSEDSSSSAQTADVGDLYSFSQRDLEFIVKFKEEYGSDTFRRILHSVCPSIYGHEIVKAGITLSLFGGVRKHSMDRNKVPVRGDIHVIIVGDPGLGKSQLLQAAAAISPRGIYVCGNATTRAGLTVAVVKDSMTNDYAFEAGAMVLADGGLCCIDEFDKMTTEHQALLEAMEQQCVSVAKAGLVASLSARTSVIAAANPVGGHYNRAKTVNENLKMSAALLSRFDLVFILLDKPDELLDKQVSEHIMSHHRMLGMQTCMQKGILYFQDCGWTLRKMTTFLRFLANCLGNIFPMHGILMSKDAGEIIQKFYLKLRDHNTSADSTPITARQLESLVRLAQARARVDLREEITVQDAMDVVEIMKESLYDKLIDEHGVVDFGRSGGMSQQKEAKRFLSALDKQSELQQKDCFSVSEMYSLADRIGLRVPDIDTFLENLNIAGYLLKKGPKTYQVLSSSYSRSQSSRSR
protein production: failed

MGGDSVAIFTADMSVSGELRNDIELHLRRGIESDALRLVYLPEVDLRTGDIVGTEALVRWQHPTRGLLAPGCFIPVAESINLAGELDRWVLRRACNEFSEWQSAGLGHDALLRINVSAGQLVTGGFVDFVADTIGQHGLDASSVCLEITENVVVQDLHTARATLARLKEVGVHIAIDDFGTGYSAISLLQTLPIDTLKIDKTFVRQLGTNTSDLVIVRGIMTLAEGFQLDVVAEGVETEAAARILLDQRCYRAQGFLFSRPVPGEAMRHMLSARRLPPTCILEHHHHHH
protein production: failed

MGGITMTAVVSNRDKINFHEVADHYHSNKIIFGIKFLKNWALERLASCAPVPSWRAKLHKMRGVNIGENVYIGYDVIFDRIHPEMITVGDYAEIGDRCILSAHSRGSLTTRQAYPRSIAPIKIGRGVSVNPGCIITQGVEIGDNSIIGVGSVVSRNISPNSLALGYPAKVIKKLDGLEHHHHHH
protein production: not failed

MGGITMTAVVSNRDKINFHEVADHYHSNKIIFGIKFLKNWALERLASCAPVPSWRAKLHKMRGVNIGENVYIGYDVIFDRIHPEMITVGDYAEIGDRCILSAHSRGSLTTRQAYPRSIAPIKIGRGVSVNPGCIITQGVEIGDNSIIGVGSVVSRNISPNSLALGYPAKVIKKLDGVGELQTLEHHHHHH
protein production: failed

MGGKMRLLPIRKISRQSKRLALFLTFCAGYVDAYTFIVRGNTLVAGQTGNVVFLSVELIKNNVSDVRDKVLTLLAFMMGVFLLTIYKEKLRIVKKP
protein production: failed

MGGPAYDCLTNPLGAVRFSFVNALSSGYDPASSVGKDWGVVDLFRHYFSDESAISQVPILDSSSIKWVQPKTLVRFRGMIQDMLGNEFYAGAYKDDSTWRTNKYSDVSQFPEGSSTEIQVWERRLLYCVPVPGKNQWTECSSQELKNRFLDLTGQNREKRVRVDEEMTDSMDSSKVGEATSSASESQVPQTSGIPPATSADSLPCLVKIYDSPESDLKLNDVVEFLGVLTFDPIVMMDTDTLDENSDALSEAESVQMPSGKQPKSPQIFKEIRESLMKYLTGLLGNDHIAAQFLLLHLLSKVHGRVDNVAVGKLSLNLIHLNKESMSIFGTQLSGALKSLLPFTQSIPLTIEYLNTASFGPKKDYGINRLMPGVLQIADGTHLILDETELQPGTLNSVGVENANLLKNLLECQKVEYDFQYYKMEMATDVQMLIFSEGKSNIMPADLVLPLQPSQVNSLEVITPETAETWRCYLATCKSLSHSIGQELQQVVENDLVAARQTDRSLGSQDLSRLLTMARMMSVSYGETTLSLEHWQMVLELERLRKERLK
protein production: failed

MGGSLRVAVLGAPGVGKTAIIRQFLFGDYPERHRPTDGPRLYRPAVLLDGAVYDLSIRDGDVAGPGSSPGGPEEWPDAKDWSLQDTDAFVLVYDICSPDSFDYVKALRQRIAETR
protein production: failed

MGHFDTPSLSRDAALLPDTGEPGFGVYVHWPFCAAKCPYCDFNSHVRHQPVDQERFAAAFLKEMAAVRAMSGPKTVTSIFLGGGTPSLMKPETVSAILDGIARHWHVPAGIEITMEANPSSVEAERFRGYRAAGVNRVSLGVQALNDRDLKFLGRLHDVADALKAIRLAREIFPRMSFDLIYARPDQTVDEWEKELKEAISYAVDHLSLYQLTIEEGTPFFGLHKSGKLIVPDGEQSALLYEATQEITAREGMPAYEVSNHARPGAESRHNLTYWRYGDYAGIGPGAHGRLTRGHEKLATATERKPEAWLEMVERDGHGILDEERLGFEEQSDELLLMGLRLREGVDLARWQQLSGRELDPKREEFLLEHKFIERIGNSRLRCTSAGMLILDSVVADLAC
protein production: failed

MGHHHHHHENLYFQSHMDSKRAALESGDGPDAKRLDTTDDQDKEASGGDGSQVMLAKHVAPYTGHGCTPPMESYLFEPTPAGSQLLPWKTSVDLDNDAELEKPTSDKKPDTAKLSRRELAKMRREHTLRALALERELTNKPGQTPASEVLLVRFPDPEITAPMLAG
protein production: not failed

MGHHHHHHENLYFQSHMKFLLAFSLLIPSVVFASSSKFQQVEQDVKAIEVSLSARIGVSVLDTQNGEYWDYNGNQRFPLTSTFKTIACAKLLYDAEQGKVNPNSTVEIKKADLVTYSPVIEKQVGQAITLDDACFATMTTSDNTAANIILSAVGGPKGVTDFLRQIGDKETRLDRIEPDLNEGKLGDLRDTTTPKAIASTLNKFLFGSALSEMNQKKLESWMVNNQVTGNLLRSVLPAGWNIADRSGAGGFGARSITAVVWSEHQAPIIVSIYLAQTQASMEERNDAIVKIGHSIFDVYTSQSR
protein production: not failed

MGHHHHHHSHDPFAHLPKSTFVLDEFKRKYSNEDTLSVALPYFWEHFDKDGWSLWYSEYRFPEELTQTFMSCNLITGMFQRLDKLRKNAFASVILFGTNNSSSISGVWVFRGQELAFPLSPDWQVDYESYTWRKLDPGSEETQTLVREYFSWEGAFQHVGKAFNQGKIFK
protein production: not failed

MGHHHHHHSHIEETTMTTQTPAPIQAPSAILPLPGQSVERLCVDPRHRQGPVNLLSDPEQGVEVTGQYEREKAGFSWIEVTFKNPLVWVHASPEHVVVTRNRRSSAYKWKETLFSVMPGLKMTMDKTGLLLLSDPDKVTIGLLFWDGRGEGLRLLLRDTDRFSSHVGGTLGQFYQEVLWGSPAASD
protein production: failed

MGHHHHHHSHLYPGSVYGRLIDLCQPTQKKYQIAVTKVLGKNMDAIIVDSEKTGRDCIQYIKEQRGEPETFLPLDYLEVKPTDEKLRELKGAKLVIDVIRYEPPHIKKALQYACGNALVCDNVEDARRIAFGGHQRHKTVALDGTLFQKSGVISG
protein production: not failed

MGHHHHHHSHMAFPSDATAEQGPILTKHGKNPVMELNEKRRGLKYELISETGGSHDKRFVMEVEVDGQKFQGAGSNKKVAKAYAALAALEKLFPDTPLALDANK
protein production: failed

MGHHHHHHSHMAPWRKADKERHGVAIYNFQGSGAPQLSLQIGDVVRIQETCGDWYRGYLIKHKMLQGIFPKSFIHIK
protein production: failed

MGHHHHHHSHMASLTVKAYLLGKEDAAREIRRFSFCCSPEPEAEAEAAAGPGPCERLLSRVAALFPALRPGGFQAHYRDEDGDLVAFSSDEELTMAMSYVKDDIFRIYIKEKKECRRDHRPPCAQEAPRNMVHP
protein production: failed

MGHHHHHHSHMDVTIQHPWFKRTLGPFYPSRLFDQFFGEGLFEYDLLPFLSSTISPYYRQSLFRTVLDSGISEVRSDRDKFVIFLDVKHFSPEDLTVKVQDDFVEIHGKHNERQDDHGYISREFHRRYRLPSNVDQSALSCSLSADGMLTFCGPKIQTGLDATHAER
protein production: failed

MGHHHHHHSHMGKITFYEDRAFQGRSYETTTDCPNLQPYFSRCNSIRVESGCWMLYERPNYQGQQYLLRRGEYPDYQQWMGLSDSIRSCCLIPQTVSHRLRLYEREDHKGLMMELSEDCPSIQDRFHLSEIRSLHVLEGCWVLYELPNYRGRQYLLRPQEYRRCQDWGAMDAKAGSLRRVVDLY
protein production: not failed

MGHHHHHHSHMGRGKGPAAEEPLSLLDDMNHCYSRLRELVPGVPRGTQLSQVEILQRVIDYILDLQVV
protein production: not failed

MGHHHHHHSHMIQYIPQRPPIVMISTLVSAEKNVTETELEIPAHGLFVKDGVLHEPGLIENVAQTAAAGVGYACTLTSQPVPVGFIGAVKNLEIDYLPKVGDVLETRVEVLEEIFDMTLIKGESFVKGKRVLTCEMKIVLKK
protein production: failed

MGHHHHHHSHMLITVYCVRRDLSEVTFSLQVSPDFELRNFKVLCEAESRVPVEEIQIIHMERLLIEDHCSLGSYGLKDGDIVVLLQKDNVGPRAPGRAPNQPRVDFSGIAVPGTSSSRPQHPGQQQQRTPAAQRSQGLASGEKVAGLQGLGSPALIRSMLLSNPHDLSLLKERNPPLAEALLSGSLETFSQVLMEQQREKALREQERLRLYTADPLDREAQAKIEEEIRQQNIEENMNIAIEEAPESFGQVTMLYINCKVNGHPLKAFVDSGAQMTIMSQACAERCNIMRLVDRRWAGVAKGVGTQRIIGRVHLAQIQIEGDFLQCSFSILEDQPMDMLLGLDMLRRHQCSIDLKKNVLVIGTTGTQTYFLPEGELPLCSRMVSGQDESSDKEITHSVMDSGRKEH
protein production: failed

MGHHHHHHSHMNSCILQATVVEAPQLRYTQDNQTPVAEMVVQFPGLSSKDAPARLKVVGWGAVAQELQDRCRLNDEVVLEGRLRINSLLKPDGNREKQTELTVTRVHHLTLDSATGI
protein production: failed

MGHHHHHHSHMPDHGDWTYEEQFKQLYELDGDPKRKEFLDDLFSFMQKRGTPVNRIPIMAKQVLDLFMLYVLVTEKGGLVEVINKKLWREITKGLNLPTSITSAAFTLRTQYMKYLYPYECEKRGLSNPNELQAAIDSNRREGRR
protein production: not failed

MGHHHHHHSHMSEYLAAADYLPHSAPMVLVDEVIHVDDEHAHCRVAVSREGILAPFLNAQGHLPAWFGIEIIAQTIGVWSGWHGRQSLGLQEKPRPGMLLGGRGYHCQQAIFPAGSLLDVTVMLVMRDEKIGSFEGEIAIDGEKYASGRLNTYQPDDRELNILLEQGKPL
protein production: failed

MGHHHHHHSHMSHYRPELPAPRTDWSLSDVDQWDTAALADGIKSFLLALPAPLVTPEASAEARRALREAAGPVGPALEPPTLPLHRALTLRFLLQHLGRVARRAPALGPAVRALGATF
protein production: failed

MGHHHHHHSHMTDPSKLAVAVVCSSNMNRSMEAHNFLAKKGFNVRSYGTGERVKLPGMAFDKPNVYEFGTKYEDIYRDLESKDKEFYTQNGLLHMLDRNRRIKKCPERFQDTKEQFDIIVTVEERVYDLVVMHMESMESVDNRPVHVLNVDVVDNAEDALMGAFVITDMINMMAKSTDLDNDIDELIQEFEERRKRVILHSVLFY
protein production: not failed

MGHHHHHHSHMTLRCLEPSGNGGEGTRSQWGTAGSAEEPSPQAARLAKALRELGQTGWYWGSMTVNEAKEKLKEAPEGTFLIRDSSHSDYLLTISVKTSAGPTNLRIEYQDGKFRLDSIICVKSKLKQFDSVVHLIDYYVQMCKDKRTGPEAPRNGTVHLYLTKPLYTSAPSLQHLCRLTINKCTGAIWGLPLPTRLKDYLEEYKFQV
protein production: failed
